Data taken from the supplement of paper PMC9112550, “Optimization of the antimicrobial peptide Bac7 by deep mutational scanning” (BMC Biology, 2022).

Tested on: Escherichia coli TOP10
Test: shrunken log2 fold change of peptide-encoding DNA abundance (4.5 h post-induction vs induction); higher = less antimicrobial activity (less host growth inhibition)
Details: time post-induction: 4.5 h; library: site-saturation at positions 5, 18, 19, 20
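Further: peptides expressed intracellularly from a pBAD plasmid library in pooled LB shake-flask culture, induced with 0.3% L-arabinose, DNA abundance read by NGS, three biological replicates, DESeq2 with apeglm shrinkage.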

RRIRNRPPRLPRPRPRPLYYPRP
shrunken log2 fold change: -0.0384

RRIRNRPPRLPRPRPRPMCIPRP
shrunken log2 fold change: -0.0106

RRIRNRPPRLPRPRPRPMCLPRP
shrunken log2 fold change: -0.0215

RRIRNRPPRLPRPRPRPMCSPRP
shrunken log2 fold change: -0.0636

RRIRNRPPRLPRPRPRPMDAPRP
shrunken log2 fold change: 0.101

RRIRNRPPRLPRPRPRPMDLPRP
shrunken log2 fold change: 0.00408

RRIRNRPPRLPRPRPRPMGNPRP
shrunken log2 fold change: -0.0658

RRIRNRPPRLPRPRPRPMHWPRP
shrunken log2 fold change: 0.0477

RRIRNRPPRLPRPRPRPMIDPRP
shrunken log2 fold change: -0.0621

RRIRNRPPRLPRPRPRPMIWPRP
shrunken log2 fold change: -0.166

RRIRNRPPRLPRPRPRPMKQPRP
shrunken log2 fold change: 0.0238

RRIRNRPPRLPRPRPRPMKSPRP
shrunken log2 fold change: -0.106

RRIRNRPPRLPRPRPRPMLAPRP
shrunken log2 fold change: -0.053

RRIRNRPPRLPRPRPRPMLYPRP
shrunken log2 fold change: -0.318

RRIRNRPPRLPRPRPRPMNDPRP
shrunken log2 fold change: 0.42

RRIRNRPPRLPRPRPRPMPLPRP
shrunken log2 fold change: -0.0789

RRIRNRPPRLPRPRPRPMQTPRP
shrunken log2 fold change: -0.00987

RRIRNRPPRLPRPRPRPMREPRP
shrunken log2 fold change: 0.13

RRIRNRPPRLPRPRPRPMSDPRP
shrunken log2 fold change: -0.00992

RRIRNRPPRLPRPRPRPMVTPRP
shrunken log2 fold change: -0.157

RRIRNRPPRLPRPRPRPMWVPRP
shrunken log2 fold change: 0.0358

RRIRNRPPRLPRPRPRPMYPPRP
shrunken log2 fold change: -0.271

RRIRNRPPRLPRPRPRPNCTPRP
shrunken log2 fold change: -0.191

RRIRNRPPRLPRPRPRPNCYPRP
shrunken log2 fold change: -0.618

RRIRNRPPRLPRPRPRPNDVPRP
shrunken log2 fold change: -0.00503

RRIRNRPPRLPRPRPRPNFLPRP
shrunken log2 fold change: -0.0488

RRIRNRPPRLPRPRPRPNFRPRP
shrunken log2 fold change: 0.0289

RRIRNRPPRLPRPRPRPNHFPRP
shrunken log2 fold change: -0.0479

RRIRNRPPRLPRPRPRPNHVPRP
shrunken log2 fold change: -0.117

RRIRNRPPRLPRPRPRPNILPRP
shrunken log2 fold change: -0.0518

RRIRNRPPRLPRPRPRPNIQPRP
shrunken log2 fold change: -0.748

RRIRNRPPRLPRPRPRPNKTPRP
shrunken log2 fold change: -0.0415

RRIRNRPPRLPRPRPRPNLSPRP
shrunken log2 fold change: -0.0459

RRIRNRPPRLPRPRPRPNMRPRP
shrunken log2 fold change: 0.23

RRIRNRPPRLPRPRPRPNPAPRP
shrunken log2 fold change: 0.028

RRIRNRPPRLPRPRPRPNPWPRP
shrunken log2 fold change: 0.107

RRIRNRPPRLPRPRPRPNRIPRP
shrunken log2 fold change: -0.233

RRIRNRPPRLPRPRPRPNRLPRP
shrunken log2 fold change: 0.0192

RRIRNRPPRLPRPRPRPNSLPRP
shrunken log2 fold change: -0.335

RRIRNRPPRLPRPRPRPNVEPRP
shrunken log2 fold change: -0.0627

RRIRNRPPRLPRPRPRPNWAPRP
shrunken log2 fold change: 0.0482

RRIRNRPPRLPRPRPRPNWQPRP
shrunken log2 fold change: -0.123

RRIRNRPPRLPRPRPRPNYEPRP
shrunken log2 fold change: -0.21

RRIRNRPPRLPRPRPRPNYLPRP
shrunken log2 fold change: -0.354

RRIRNRPPRLPRPRPRPPCFPRP
shrunken log2 fold change: -0.00581

RRIRNRPPRLPRPRPRPPCRPRP
shrunken log2 fold change: -0.0266

RRIRNRPPRLPRPRPRPPDDPRP
shrunken log2 fold change: 0.123

RRIRNRPPRLPRPRPRPPEGPRP
shrunken log2 fold change: 1.62

RRIRNRPPRLPRPRPRPPESPRP
shrunken log2 fold change: -0.000194

RRIRNRPPRLPRPRPRPPEVPRP
shrunken log2 fold change: 0.0233

RRIRNRPPRLPRPRPRPPFTPRP
shrunken log2 fold change: 0.0907

RRIRNRPPRLPRPRPRPPHEPRP
shrunken log2 fold change: 0.256

RRIRNRPPRLPRPRPRPPILPRP
shrunken log2 fold change: 0.144

RRIRNRPPRLPRPRPRPPKLPRP
shrunken log2 fold change: 0.0789

RRIRNRPPRLPRPRPRPPKVPRP
shrunken log2 fold change: 0.28

RRIRNRPPRLPRPRPRPPKWPRP
shrunken log2 fold change: 0.411

RRIRNRPPRLPRPRPRPPLGPRP
shrunken log2 fold change: 0.331

RRIRNRPPRLPRPRPRPPLKPRP
shrunken log2 fold change: 0.0326

RRIRNRPPRLPRPRPRPPLMPRP
shrunken log2 fold change: -0.0745

RRIRNRPPRLPRPRPRPPLNPRP
shrunken log2 fold change: 0.0798

RRIRNRPPRLPRPRPRPPLTPRP
shrunken log2 fold change: 0.0501

RRIRNRPPRLPRPRPRPPMCPRP
shrunken log2 fold change: 0.154

RRIRNRPPRLPRPRPRPPNRPRP
shrunken log2 fold change: 2.99

RRIRNRPPRLPRPRPRPPPAPRP
shrunken log2 fold change: 1.09

RRIRNRPPRLPRPRPRPPQLPRP
shrunken log2 fold change: 0.131

RRIRNRPPRLPRPRPRPPQTPRP
shrunken log2 fold change: 0.424

RRIRNRPPRLPRPRPRPPSVPRP
shrunken log2 fold change: 0.0886

RRIRNRPPRLPRPRPRPPTAPRP
shrunken log2 fold change: 0.295

RRIRNRPPRLPRPRPRPPTLPRP
shrunken log2 fold change: -0.204

RRIRNRPPRLPRPRPRPPTTPRP
shrunken log2 fold change: 0.19

RRIRNRPPRLPRPRPRPPVFPRP
shrunken log2 fold change: 0.15

RRIRNRPPRLPRPRPRPPVTPRP
shrunken log2 fold change: 0.228

RRIRNRPPRLPRPRPRPPWKPRP
shrunken log2 fold change: -0.0649

RRIRNRPPRLPRPRPRPPWRPRP
shrunken log2 fold change: 0.437

RRIRNRPPRLPRPRPRPPYDPRP
shrunken log2 fold change: -0.561

RRIRNRPPRLPRPRPRPPYTPRP
shrunken log2 fold change: -0.876

RRIRNRPPRLPRPRPRPQEYPRP
shrunken log2 fold change: -0.578

RRIRNRPPRLPRPRPRPQFCPRP
shrunken log2 fold change: -0.0424

RRIRNRPPRLPRPRPRPQGIPRP
shrunken log2 fold change: -0.216

RRIRNRPPRLPRPRPRPQGNPRP
shrunken log2 fold change: -0.0905

RRIRNRPPRLPRPRPRPQGYPRP
shrunken log2 fold change: -0.667

RRIRNRPPRLPRPRPRPQHEPRP
shrunken log2 fold change: -0.0581

RRIRNRPPRLPRPRPRPQLLPRP
shrunken log2 fold change: -0.0811

RRIRNRPPRLPRPRPRPQMEPRP
shrunken log2 fold change: -0.191

RRIRNRPPRLPRPRPRPQNMPRP
shrunken log2 fold change: -0.233

RRIRNRPPRLPRPRPRPQPRPRP
shrunken log2 fold change: 0.507

RRIRNRPPRLPRPRPRPQQFPRP
shrunken log2 fold change: -0.0018

RRIRNRPPRLPRPRPRPQQQPRP
shrunken log2 fold change: 0.103

RRIRNRPPRLPRPRPRPQRNPRP
shrunken log2 fold change: -0.109

RRIRNRPPRLPRPRPRPQRVPRP
shrunken log2 fold change: 0.399

RRIRNRPPRLPRPRPRPQRWPRP
shrunken log2 fold change: 0.176

RRIRNRPPRLPRPRPRPQSMPRP
shrunken log2 fold change: -0.567

RRIRNRPPRLPRPRPRPQTSPRP
shrunken log2 fold change: -0.346

RRIRNRPPRLPRPRPRPQVLPRP
shrunken log2 fold change: -0.0163

RRIRNRPPRLPRPRPRPRAAPRP
shrunken log2 fold change: 0.601

RRIRNRPPRLPRPRPRPRADPRP
shrunken log2 fold change: 0.327

RRIRNRPPRLPRPRPRPRAEPRP
shrunken log2 fold change: 0.103

RRIRNRPPRLPRPRPRPRAHPRP
shrunken log2 fold change: -0.0951

RRIRNRPPRLPRPRPRPRCEPRP
shrunken log2 fold change: 0.357

RRIRNRPPRLPRPRPRPRFNPRP
shrunken log2 fold change: -0.766

RRIRNRPPRLPRPRPRPRFWPRP
shrunken log2 fold change: 0.395

RRIRNRPPRLPRPRPRPRHLPRP
shrunken log2 fold change: -0.337

RRIRNRPPRLPRPRPRPRIFPRP
shrunken log2 fold change: -0.442

RRIRNRPPRLPRPRPRPRKDPRP
shrunken log2 fold change: 0.00266

RRIRNRPPRLPRPRPRPRKVPRP
shrunken log2 fold change: 0.445

RRIRNRPPRLPRPRPRPRLSPRP
shrunken log2 fold change: 0.0939

RRIRNRPPRLPRPRPRPRMFPRP
shrunken log2 fold change: -0.362

RRIRNRPPRLPRPRPRPRMVPRP
shrunken log2 fold change: -0.289

RRIRNRPPRLPRPRPRPRNNPRP
shrunken log2 fold change: -0.45

RRIRNRPPRLPRPRPRPRQIPRP
shrunken log2 fold change: 0.151

RRIRNRPPRLPRPRPRPRTKPRP
shrunken log2 fold change: 0.123

RRIRNRPPRLPRPRPRPRVYPRP
shrunken log2 fold change: -0.0128

RRIRNRPPRLPRPRPRPRWDPRP
shrunken log2 fold change: 0.249

RRIRNRPPRLPRPRPRPRWMPRP
shrunken log2 fold change: 0.0606

RRIRNRPPRLPRPRPRPRWWPRP
shrunken log2 fold change: 0.159

RRIRNRPPRLPRPRPRPRYDPRP
shrunken log2 fold change: -0.494

RRIRNRPPRLPRPRPRPRYEPRP
shrunken log2 fold change: -0.27

RRIRNRPPRLPRPRPRPRYIPRP
shrunken log2 fold change: -0.455

RRIRNRPPRLPRPRPRPSAAPRP
shrunken log2 fold change: 0.338

RRIRNRPPRLPRPRPRPSAQPRP
shrunken log2 fold change: 0.147

RRIRNRPPRLPRPRPRPSARPRP
shrunken log2 fold change: 0.256

RRIRNRPPRLPRPRPRPSCTPRP
shrunken log2 fold change: -0.34

RRIRNRPPRLPRPRPRPSCWPRP
shrunken log2 fold change: 0.0544

RRIRNRPPRLPRPRPRPSDNPRP
shrunken log2 fold change: -0.494

RRIRNRPPRLPRPRPRPSGFPRP
shrunken log2 fold change: 0.0185

RRIRNRPPRLPRPRPRPSHWPRP
shrunken log2 fold change: -0.17

RRIRNRPPRLPRPRPRPSIAPRP
shrunken log2 fold change: -0.0838

RRIRNRPPRLPRPRPRPSINPRP
shrunken log2 fold change: -0.537

RRIRNRPPRLPRPRPRPSKYPRP
shrunken log2 fold change: -0.532

RRIRNRPPRLPRPRPRPSLEPRP
shrunken log2 fold change: -0.208

RRIRNRPPRLPRPRPRPSLQPRP
shrunken log2 fold change: -0.0436

RRIRNRPPRLPRPRPRPSMAPRP
shrunken log2 fold change: -0.139

RRIRNRPPRLPRPRPRPSNMPRP
shrunken log2 fold change: -0.429

RRIRNRPPRLPRPRPRPSNWPRP
shrunken log2 fold change: -0.203

RRIRNRPPRLPRPRPRPSPRPRP
shrunken log2 fold change: 0.0772

RRIRNRPPRLPRPRPRPSQNPRP
shrunken log2 fold change: -0.386

RRIRNRPPRLPRPRPRPSQQPRP
shrunken log2 fold change: -0.111

RRIRNRPPRLPRPRPRPSQRPRP
shrunken log2 fold change: -0.0448

RRIRNRPPRLPRPRPRPSRKPRP
shrunken log2 fold change: -0.21

RRIRNRPPRLPRPRPRPSTPPRP
shrunken log2 fold change: -0.103

RRIRNRPPRLPRPRPRPSVCPRP
shrunken log2 fold change: -0.174

RRIRNRPPRLPRPRPRPSVMPRP
shrunken log2 fold change: -0.281

RRIRNRPPRLPRPRPRPSVVPRP
shrunken log2 fold change: -0.0462

RRIRNRPPRLPRPRPRPSWEPRP
shrunken log2 fold change: -0.32

RRIRNRPPRLPRPRPRPSWYPRP
shrunken log2 fold change: -0.81

RRIRNRPPRLPRPRPRPSYVPRP
shrunken log2 fold change: -0.0484

RRIRNRPPRLPRPRPRPTCGPRP
shrunken log2 fold change: 0.073

RRIRNRPPRLPRPRPRPTCQPRP
shrunken log2 fold change: 0.0956

RRIRNRPPRLPRPRPRPTCSPRP
shrunken log2 fold change: -0.261

RRIRNRPPRLPRPRPRPTEIPRP
shrunken log2 fold change: -0.319
